Molecular target: GST-Gag (HIV-1 Gag fused to GST, from pGEX-6P-3/Gag) (HIV-1)
Test: SPR

FLAG-TSG101 (Tumor Susceptibility Gene 101) (from UniProt Q99816 1-390) (natural protein)
Kd: 0.0552 µM | koff: 0.0223 s⁻¹ | kon: 924000 M⁻¹ s⁻¹
